This is an account of results in patent publication US20200384080A1 (published 2020).

Numbering of substitutions follows the chain as printed.

The target in experiment [1] is T1, ALK4-Fc:ActRIIB-Fc heterodimer (human, UniProt P36896 24-126; Q13705 20-134).
T1 construct: also called ALK4-Fc:ActRIIB-Fc heterodimeric complex; ALK4:ActRIIB heterodimer; not shown: Linkers (TGGG on ALK4, GGG on ActRIIB) and the engineered Fc pair; They differ only in Fc substitutions
T1 sequence 1: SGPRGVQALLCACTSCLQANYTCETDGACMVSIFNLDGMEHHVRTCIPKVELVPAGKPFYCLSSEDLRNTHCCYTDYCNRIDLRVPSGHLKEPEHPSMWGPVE
T1 sequence 2: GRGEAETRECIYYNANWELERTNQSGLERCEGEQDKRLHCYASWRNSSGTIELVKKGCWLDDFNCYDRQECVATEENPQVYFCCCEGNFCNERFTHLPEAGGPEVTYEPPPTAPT
Description: Biacore, receptor captured by anti-Fc. How it is done: (§1) A Biacore™-based binding assay was used to compare ligand binding selectivity of the ALK4-Fc:ActRIIB-Fc heterodimeric complex described above with that of ActRIIB-Fc and ALK4-Fc homodimer complexes. The ALK4-Fc:ActRIIB-Fc heterodimer, ActRIIB-Fc homodimer, and ALK4-Fc homodimer were independently captured onto the system using an anti-Fc antibody. Ligands were injected and allowed to flow over the captured receptor protein. Results are summarized in the table below, in which ligand off-rates (kd) most indicative of effective ligand traps are denoted in bold font.
In general terms: In SPR one partner is held on a chip, and binding of the other changes the refractive index at the surface.

For experiment [2], the target named is T2, activin A (UniProt P08476 311-426).
T2 sequence (looked up): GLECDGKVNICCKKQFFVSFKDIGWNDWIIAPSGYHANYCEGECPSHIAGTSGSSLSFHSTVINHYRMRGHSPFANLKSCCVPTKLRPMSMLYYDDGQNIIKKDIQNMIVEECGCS
The experiment can be described thus: cell-based or functional assay.

Experiment [3] addresses T3, GDF11 (UniProt O95390 299-407).
T3 sequence (looked up): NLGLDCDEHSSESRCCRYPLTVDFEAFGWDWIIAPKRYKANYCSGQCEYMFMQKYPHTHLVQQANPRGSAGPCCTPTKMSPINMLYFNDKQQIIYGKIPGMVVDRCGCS
Description: cell-based or functional assay.

The target of experiment [4] is T3, GDF11. Description: Biacore, receptor captured by anti-Fc. How it is done:
as §1

For experiment [5], the target named is T3, GDF11. The experiment can be described thus: Biacore, receptor captured by anti-Fc; footnote: very low signal. As for the experimental part: as §1

B1: BMP6 (ligand, UniProt P22004 375-513, looked up)
chain: SASSRRRQQSRNRSTQSQDVARVSSASDYNSSELKTACRKHELYVSFQDLGWQDWIIAPKGYAANYCDGECSFPLNAHMNATNHAIVQTLVHLMNPEYVPKPCCAPTKLNAISVLYFDDNSNVILKKYRNMVVRACGCH
The term Kd denotes the equilibrium constant for the complex coming apart. A high value points to lower affinity. For orientation: koff means the first-order rate constant of dissociation. One may read the kon as a measure of how fast the partners come together. The low end stands for slower complex formation, the high end for faster complex formation. In experiment [1], B1 showed a Kd of 2.7 nM, a koff of 0.0055 s⁻¹ and a kon of 2e+06 M⁻¹ s⁻¹.

B2: ActRIIB-Fc A64 20-134 (Fc fusion)
chain: GRGEAETRECIYYNANWELERTNQSGLERCEGEQDKRLHCYASWANSSGTIELVKKGCWLDDFNCYDRQECVATEENPQVYFCCCEGNFCNERFTHLPEAGGPEVTYEPPPTAPTGGGTHTCPPCPAPELLGGPSVFLFPPKPKDTLMISRTPEVTCVVVDVSHEDPEVKFNWYVDGVEVHNAKTKPREEQYNSTYRVVSVLTVLHQDWLNGKEYKCKVSNKALPVPIEKTISKAKGQPREPQVYTLPPSREEMTKNQVSLTCLVKGFYPSDIAVEWESNGQPENNYKTTPPVLDSDGSFFLYSKLTVDKSRWQQGNVFSCSVMHEALHNHYTQKSLSLSPGK
Consider B2, for which the “KI, cell-based assay” value in experiment [2] and in experiment [3] was around 1000 nM each time.

B3: ActRIIB(20-134)-hFc (Fc fusion)
chain: B2 chain with A45R
On to B3, for which the “KI, cell-based assay” value in experiment [2] and in experiment [3] was around 10 nM each time.

B4: ALK4-Fc homodimer (Fc fusion)
chain: T1 sequence 1
notes: not shown: linker and Fc of the homodimer not specified
Turning to B4, the kon in experiment [4] was found to be 4.8e+06 M⁻¹ s⁻¹. This molecule also registered a Kd in experiment [5] of 0.27 nM.
